Reference: article PMC4533164, “Approaching rational epitope vaccine design for hepatitis C virus with meta-server and multivalent scaffolding” (Scientific Reports, 2015)

B1: human neutralizing antibody IGH526 (antibody, V domains shown)
VH: VQLLEQSGAEVKRPGASVKVSCKASGYTFTSYAIHWVRQAPGQRLEWMGWINPGNGNAKYSQRFQGRVIISRDTSATTSYMELSSLTSEDTAVYSCARDRGFDLLTGHYLGLDPWGQGTLVTVSS
VL: ELTLTQPASASATPGQRVTISCSGSSSNIGGNTVNWYQHLPGAAPKLLIHNNDLRPSGVPDRFSGSKSGTSASLAVSGLQSEDEADYFCAAWDDGLNGWVFGGGTKLTVL
notes: Captured on anti-human Fc biosensors and detected with anti-human IgG, so it carried a human Fc in the assays; also called nAb IGH526

Tests used:
1VQO_U_ES-ferritin [1] = target: 1VQO_U_ES-ferritin (UniProt Q9ZLI1); experiment: native gel or EMSA; blue native (BN) PAGE of the purified nanoparticle, Coomassie blue staining
1VQO_U_ES-ferritin [2] = target: T1, 1VQO_U_ES-ferritin (UniProt Q9ZLI1); experiment: ELISA; HCV antigen coated on 96-well plates overnight at 4 °C; antibody added at a maximum of 2 μg/ml in a 5-fold dilution series, 1 h at RT; detected with peroxidase goat anti-human IgG, read at 450 nm; settings: both partners purified
T1 construct: ferritin subunit beginning at Asp5; 24 copies on the particle; also called E1 nanoparticle antigen; source: HEK293F, transiently expressed, purified (Ni Sepharose excel, SEC); copies: 24

| Molecule | stoichiometry N (1VQO_U_ES-ferritin [1]) | binding result (1VQO_U_ES-ferritin [2]) |
| --- | --- | --- |
| 1VQO_U_ES-ferritin (from UniProt Q9ZLI1 5-167) | 24 |  |
| B1 |  | binds |
